The record followed here is publication PMC12095920.

Test [1] deals with tau^4R construct (four microtubule-binding repeat domains of human tau) (human) (UniProt P10636).
The target in test [2] is tau^4R construct (four microtubule-binding repeat domains of human tau) (human), P10636.
Chain of tau^4R construct (four microtubule-binding repeat domains of human tau) (human), P10636 (P10636 561-689): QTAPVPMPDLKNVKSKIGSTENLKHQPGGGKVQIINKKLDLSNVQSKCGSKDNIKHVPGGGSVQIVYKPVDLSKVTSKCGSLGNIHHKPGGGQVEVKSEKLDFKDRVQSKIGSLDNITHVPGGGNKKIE

Turning to “apical domain of human CCT3 (from UniProt P49368 223-383) (domain or fragment)”, in test [1], the ThT fluorescence after 23 h in the presence of apiCCT3, relative to tau^4R alone (not shown) was found to be 2.5%.

B1: apical domain of human CCT7, Q99832 207-376 (domain or fragment)
chain: DSQLVAGVAFKKTFSYAGFEMQPKKYHNPKIALLNVELELKAEKDNAEIRVHTVEDYQAIVDAEWNILYDKLEKIHHSGAKVVLSKLPIGDVATQYFADRDMFCAGRVPEEDLKRTMMACGGSIQTSVNALSADVLGRCQVFEETQIGGERYNFFTGCPKAKTCTFILRG
Take B1: the ThT fluorescence after 23 h in the presence of apiCCT7, relative to tau^4R alone in test [2] was found to be 30%.
